Experimental data taken from PMC4112721 (Plant Biotechnology Journal, 2013).

B1: VRC01 from transiently transformed Nicotiana benthamiana plants (antibody, V domains shown)
VH: QVQLVQSGGQMKKPGESMRISCRASGYEFIDCTLNWIRLAPGKRPEWMGWLKPRGGAVNYARPLQGRVTMTRDVYSDTAFLELRSLTVDDTAVYFCTRGKNCDYNWDFEHWGRGTPVIVSS
VL: EIVLTQSPGTLSLSPGETAIISCRTSQYGSLAWYQQRPGQAPRLVIYSGSTRAAGIPDRFSGSRWGPDYNLTISNLESGDFGVYYCQQYEFFGQGTKVQVD
notes: IgG1 kappa; plant-codon-optimized genes, both chains on one pTRAk.2 vector; also called VRC01 transient; transient plant-derived VRC01
B2: VRC01 from HEK cells (antibody, V domains shown)
VH: QVQLVQSGGQMKKPGESMRISCRASGYEFIDCTLNWIRLAPGKRPEWMGWLKPRGGAVNYARPLQGRVTMTRDVYSDTAFLELRSLTVDDTAVYFCTRGKNCDYNWDFEHWGRGTPVIVSS
VL: EIVLTQSPGTLSLSPGETAIISCRTSQYGSLAWYQQRPGQAPRLVIYSGSTRAAGIPDRFSGSRWGPDYNLTISNLESGDFGVYYCQQYEFFGQGTKVQVD
notes: as the heavy chain of m1; as the light chain of m1; IgG1 kappa; also called VRC01 HEK; HEK-cells-derived VRC01; source: HEK cells, purified
B3: VRC01 from stably transformed (transgenic) Nicotiana tabacum plants (antibody, V domains shown)
VH: QVQLVQSGGQMKKPGESMRISCRASGYEFIDCTLNWIRLAPGKRPEWMGWLKPRGGAVNYARPLQGRVTMTRDVYSDTAFLELRSLTVDDTAVYFCTRGKNCDYNWDFEHWGRGTPVIVSS
VL: EIVLTQSPGTLSLSPGETAIISCRTSQYGSLAWYQQRPGQAPRLVIYSGSTRAAGIPDRFSGSRWGPDYNLTISNLESGDFGVYYCQQYEFFGQGTKVQVD
notes: as the heavy chain of m1; as the light chain of m1; IgG1 kappa; source: N. tabacum cv

Target: T1, HIV-1 envelope glycoprotein gp120 IIIB (HIV-1 group M subtype B, isolate IIIB …, UniProt P03375)
T1 construct: gp120 surface glycoprotein, cut product of the HIV-1 Env precursor, isolate IIIB; also called recombinant gp120 III; HIV gp120 IIIB; source: purified recombinant; NIH ARRRP
Assay: SPR; Protein A amine-coupled on a CM5 chip, VRC01 captured to about 100 RU, gp120 IIIB injected at 20 ug/mL; BIAcore X-100, 25 °C, HBS-EP+ (10 mM HEPES pH 7.4, 150 mM NaCl, 3 mM EDTA, 0.05% surfactant P-20); 1:1 Langmuir fit; triplicate
Conditions: both partners purified

Row | Binder | Kd
1 | B1 | 1.68 nM
2 | B2 | 0.66 nM
3 | B3 | 1.39 nM
